# Experimental data reported in the nanobody polyreactivity screen of Harvey et al. (2022).
# Assay: yeast display, Sf9 membrane polyspecificity reagent, FACS + sequencing; frameworks hold sequencing errors
# Procedure, shortened: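 Using colony PCR, genes from sorted yeast display clones were amplified, then sequenced on MiSeq at 2 × 250 and filtered by CDR length. The clones had been stained with 10% biotinylated, detergent-solubilized Sf9 membrane reagent for 1 hour at 4 °C and sorted by FACS into low and high (top ~1%) gates on anti-HA and streptavidin fluorescence. Polyreactivity labels come from the gate of origin.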
row,Sequence,polyreactivity (PSR sort gate)
1,QVQLVESGGGLVQAGGSLRLSCAASGRIFRYYAMGWYRQAPGKERELVAAISKTGGSTYYADSVKGRFTISRDNAKNTVYLQMNSLKPEDTAVYYCAAVGRYSYLSSEGDYWGQGTQVTVSS,high polyreactivity
2,QVQLVESGGGLVQAGGSLRLSCAASGSTFYIYAMGWYRQAPGKEREFVAAIDLSGSSTYADSVKGRFTISRDNAKNTVYLQMKSLKPEDTAVYYCAAYQIYQYDGPYDYWGQGTQVTVSS,low polyreactivity
3,QVQLVESGGGLVQAGGSLRLSCAASGLTIQLYAMGWYRQAPGKERELVAAISGSGGRTYYADSVKGRFTISRDNAKNTVYLQMNSLKPEDTAVYYCAARPGSGRSYTSDYWGQGTEVTVSS,high polyreactivity
4,QVQLVESGGGLVQAGGSLRLSCAASGRTFWVYAMGWYRQAPGKERELVAAISWRAGSTYYADSVKGRFTISRDNAKNTVYLLMNSLKPEVTAVYYCAAETYTTLDYWGQGTQVTVSS,high polyreactivity
5,QVQLLESGGGLVQAGGSLRLSCAASGSTLKLNAMGWYRQAPGKDRELVAAITRSGGSTNYADSVKGRFTISRDNAKNTVSLQMNSLKPEDTAVYDCAADVLWDEFGYWGQGTQVTVSS,low polyreactivity
6,QVQLVESGGGLDQAGRSLRLSCAASGLIFTDYTMGWYRQAPGKERELVATISTGGRTFYADSVKGRFTISRDNAKNTVYLQMNSLKPEDTAVYYCAKDQPGRAGFLFTPGLVDYDYWGQGTQVTVSS,low polyreactivity
7,QVQLVESGGGLVQAGGSLRLSCAASGRTYIYNAMGWYRQAPGKERELVAAISFRGGSTYYADSVKGRFTISRDNAKNTVYLQMNSLKPEDTAVYYCNAVRFYRYGWGQGTQVTVSS,high polyreactivity
8,QVQLVESGGGLVQAGGSLRLICAASGSIFDQNDMGWYRQAPGKERELVAAISSGSSTNYADSVKGRFTISRDNAKNTVYLQMNSLKAEDTAGYYCAVTSPYSQGYSFWGADSREYWGQGTQVTVSS,low polyreactivity
9,QVQLVESGGGLVQAGGSLRLSCAASGYTFRVYTMGWYRQAPGKERELVAAISRRGSRTYYADSVKGRFTISRDNAKNSVYLQMNSLKPEDTAVYYCAAGIPYPDDYWGQGTQVTVSS,high polyreactivity
10,QVQLVESGGGLVQAGGSLRLSCAASGSIFKCNSRGWYRQAPVKERELVAAITFSGSSTFYADSVKGRFTISRDTAKNTVYLQMNSLKTEDSALYYCNAVRRQQFGSWGQGTQGTVSS,high polyreactivity
11,QVQLVESGGGLVQAGGSLRLSCAASGRTFKFNTMGWYRQAPGKEREVVAAISWTGAITHYADSVKGRFTISRDNAKNTVYLQMNSLKPEDTAVYYCNSDPYRRIYNYWGQGTQVTVSS,low polyreactivity
12,QVQLVESGGGLVQAGGSLRLSCAASGGILWFYAMGWYIQAPGKEREFVAAIDLGGGSTYYADSVKGRFTISRDNAKTTVYLQMNSLKPEDTAVYYCNAETSGHYSTIMDYWGQGTQVTVSS,low polyreactivity
13,QVQLVESGGGLVQAGGSLRLSCAASGRIFTANVMGWYRQAPGKERELVAAIDYSGGSTYYADSVKGRFTISRDNAKNTVYLQMNSLKPEDTAVYYCNRDDYADYYHLEYDYWGQGTQVTVSS,low polyreactivity
14,QVQLVESGGRLVQAGGRLRLSCAASGNIFYGYAMGWYRQAPGKERELVARINWSGSRTYYADTVKGRFTISRDNAKNTVYLQMNSLNPEDTAVYYCNTSTSRVPGNGDYWGQGTQVTVSS,high polyreactivity
15,QVQLVESGGGLVPAGGSLRLSCAASGSIFVKYALGRYRPAPGKERELVAAISRSGTRTYYADSVKGRFTISRDNAKNTVYLQMNSLKPEDTAVYYCAAAATTVRPYEYWGQGTQVTVSS,high polyreactivity
16,QVQLVESGGGLVQAGGSLRLRCAASGSIFYLYAMGWFRRAPGKERELVAASSRSGASTYYADSVKGRFTISRDNAKNTVYLQMNSLKPEDTAVYYGAADYNSQLARIYDYWGQGTQVTVSS,low polyreactivity
17,QVQLVESGGGLVQAGGSLRLSCAASGITFDSYAMGWYRQAPGKERELVATISRSGTTTYYADSVKGRFTISRDNAKNTGYLQMNSLKPEDTAVYYCNTLRDYWTYHFYGAVRDGYDYWGQGTQVTVSS,low polyreactivity
18,QVQLVESGVGLVQAGGSLRLSCAPSGRTFFWYAMGWYRPAPGKERELVAAIRGAGRTNYADSVKGRFTISRDNAKYTVYLHMNSLKPEDTAVYYCAAQHYPWRRYDYWGLGTQVTVSS,high polyreactivity
19,QVQLVESGGGLVQAGGSLRLSCAASGRIFSYYAMGWYRQAPGKERELVARISWRGGSTYYADSVKGRFTISRDNSKNTVYLQMNSLKPEDSAVYYCAATSPYYRTGYDYWGQGTQVTVSS,high polyreactivity
20,QVQLVESGGGLVQAGGSLRLSCAASGRIFRYNAMGWYRQAPGKERELVASINQRGGSTYYADSVKGRFTISRDNAKNTVYLQMNSLKPEDTAVYYCAKRFNSGYYYWGQGTQVTVSS,high polyreactivity
21,QVQLVESGGGLVQAGGSLRLSCAASGSIFRYNAMGWYRQAPGTEREVVAGITSGGDTNYADSVKGRFTISRDNAKNTVYLQMNSLKPEDTAVYYCAKRWYGGRRYDYWGQGTQVTVSS,low polyreactivity
22,QVQLVESWGGLVQAGGSLRLRCAASGSTSLGYAMGWYRQAPGKERELVASISWTGGGKYYADSVKGRFTISRDNAKNTVYLQMNSLKPEDTAVYYCAADLTGYHPYIYGYWGQVTQVTVSS,low polyreactivity

row,Sequence,polyreactivity (PSR sort gate)
1,QVQLVESGGGLVQAGGSLRLSCAASGRTFGYNVMGWYTQAPGKERELVAGISESGGRTYYADSVKGRVTISRDNAKNTVYLQMNSLKPEDTAVYYCAKRYQRASYDYWGQGTQVTVSS,high polyreactivity
2,QVQLVESGGGLVQAGGSLRLSCAASGRIFDIYGMGWYRQAPGKERELVAAITSGGSTYYADSVKGRFTISRDNAKNTVYLQMNSLKPEDTAVYYCAADSVLLKDTGYDYWGQGTQVTVSS,low polyreactivity
3,QVQLVESGGGIVQAGGSLRLSCAASGRTLGGYAMGWYRQAPGKERELVAAITRRGGSTYYADSVKGRFTISRDNAKNTVYLQMNSLKPEDTAVYYCAARWYARSLTRFNYWGQGTQVTVSS,high polyreactivity
4,QVQLVESGGGLVQAGGSLRLSCAASGYTFSHYAMGWYRQAPGKERELVAGITWSGGSTYYADSVKGRFTISRENSKNTVYLQMNSLKPEDTSVYYCAAKYYWYYSYSGIPLFDYWGQGTQVTVSS,low polyreactivity
5,QVQLVESGGGLVQAGGSLRLSCAASGSTFGYYGMGWYRQAPGKERELVAAISTGGRTNYADSVKGRFTISRDNAKNTVYLQMNSLKPEVTAVYYCAADFLCTAYRPSWYRFDYWGQGTQVTVSS,low polyreactivity
6,QVQLVESGGGLVQAGGSLRLSCAPSGFTFYKNAMGWYRQAPGKERELVAAITSSGGSTYYADSVKGRFTISRDNAKNTVYLQMNSLKPEDTAVYYCAAYPQAYIADYDYWGQGTQVTVSS,low polyreactivity
7,QVQLVESGGGLVQARGSLRLSCAASGRIFKYNAMGWYRQAPGKESELVAAISGGGSTNYADSVKGRFTISRDNAKNTVYLLMNSLKPEDTAVYYCAKGYRRVYGPFYYWGQGTQVTVSS,low polyreactivity
8,QVQLVESGGGLVQAGGSLRLSFAASGSTIGDNAMGWYRQAPGKERELVAVITSDTSTYYADSVKGRFTISRDNAMNTVYLQMNSLKPEDTAVYYCAADWGGLWFWYEYWGQGTQVTVSS,low polyreactivity
9,QVQLVESGGGLVQAGGSLRLSCAASGYIFYYNAMGWYRQAPGKERELVADITWSGDSTYYADSVKGRFTISRYNAKNTVYLQMNSLKPEDTAVYYCAAEYLEYWDYDIMDYWGQGTQVTVSS,low polyreactivity
10,QVQLVESGVGLVQAGGSLRLSCAASGSTFSNNAMGWYIQAPGKERELVAVITGDGGSTYYADSVKGRFTISRDIAKNTVYLQTNSLKPEDTAVYSCNARSSRYSRFRQRFGYWGQVTQVTVSS,low polyreactivity
11,QVQLVESGGGLVQAGGSLRLSCAASGRIFYTNAMGWYRQAPGKERELVATISGSGGNTYYADSVKGRFTISRDNAKNTVYLQMNSLKPEDTAVYYCAKAYYTPYGVYVLHYYWGQGTQVTVSS,high polyreactivity
12,QVQLVESGGGLVQAGGSLRLSCAASGSIFSYYAMGWYRQAPGKERELVAAISRSGVSTYYADSVKGRFTISRDNAKNTVYLQMNSLKPEDTAVYYCNAVFTWPRRKYGYDYWGQGTQVTVSS,high polyreactivity
13,QVQLVESGGGLVQAGGSLSLICAASGSTILYNTMGWYRQAPGKERELVATITSRGDRTYYADSVKGRFTISRDNAKNTVYLQMNSLKPDDTAVYYCNAYGGNYPQSYRYYYWGQGTQVTVSS,low polyreactivity
14,QDQLVESGGGLVQAGGSLRLSCAASGSNFLKYTMGWYRQAPGKERELVAAITSGGTTNYADSVKGRFTISRDNAKNTVYLQMNSLKPEDTAVYYCARDSYQLGLIRDPLEYDYWGQGTQVTVSS,low polyreactivity
15,QVQLVESGGGLVQAGGSLRLSCAASGSTLYYNAMGWYRQAPGKESELVAAISWSGGSTYYADSVKGRFTISRDNAKNTVYLQMNSLKPEDTAVYYCAADQSTVLDVGSWGQGTQVTVSS,low polyreactivity
16,QVQLVESAGGLVQAGGSLRLSCAAYGIIFKIYAMGWYRQAPGKERELVAAITRSGTRTYYADSVKGRFTISRDNEKNTVYFQMNSLKPEDTAGYYCNAYTSLAYDLDYWGQGTQVTVSS,high polyreactivity
17,QLQLVESGGGLVQAVGSLRLSCAATGSIFYPYAMGWNRQAPGKERELVASISWSGGITYYADSVKGRFTISRDNAKNTVYLQMNSLKPEDTAVYYCAADFSWYLYDYDYWGQGTQVTVSS,low polyreactivity
18,QVQLEESGGGLVQAGGSLRLSCAASGSTFGKNAMGWYRQAPGKERELVASITWRGGSTYYADSVKGRFTISRDNAKNTVYLQMNSLKPEDTAVYYCAADYVVSAFDYWGQGTQVTVSS,low polyreactivity
19,QVQLVESGGGLVQAGGSLRLSCAASGRTSVINAMGWYRQAPGKERELVATISRGGSTNYADSVKGRFTISRDNAKNTVYLQMNSLIPDDTAVYYCNADEQNESFIWSFTIIYDYWGQGTQVTVSS,low polyreactivity
20,QVQLVESGGGLVQAGGSLRLSCAASGGIFRYYAMGWYRQAPGKERELVAAISSGGRTYYADSVKGRFTISRDNAKNTVYLQMNSLKPEDTAVYYCNADRYWGYDYWGQGTQVTVSS,high polyreactivity
21,QVQLVESGGGLVQAGGSLRLSCAASGRIFRYYTMGWYRQAPGKERELVAAIRLAGSTTYYADSVKGRFTISRDNAKNTVYLQMNSLNPEDSAVYSCTTRYPVPSGYDYWGHGTQVTVSS,high polyreactivity
